Source: the supplement of paper PMC9112550, “Optimization of the antimicrobial peptide Bac7 by deep mutational scanning” (BMC Biology, 2022)

What follows are sequences tested on Escherichia coli TOP10 (assay: shrunken log2 fold change of peptide-encoding DNA abundance (4.5 h post-induction vs induction); higher = less antimicrobial activity (less host growth inhibition)). Settings: time post-induction: 4.5 h; library: site-saturation at positions 5, 18, 19, 20.
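Also: peptides expressed intracellularly from a pBAD plasmid library in pooled LB shake-flask culture, induced with 0.3% L-arabinose, DNA abundance read by NGS, three biological replicates, DESeq2 with apeglm shrinkage.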

Row | Sequence | shrunken log2 fold change
1 | RRIRYRPPRLPRPRPRPIQMPRP | -0.0163
2 | RRIRYRPPRLPRPRPRPIQSPRP | -0.00206
3 | RRIRYRPPRLPRPRPRPISCPRP | -0.202
4 | RRIRYRPPRLPRPRPRPISIPRP | -0.134
5 | RRIRYRPPRLPRPRPRPITPPRP | -0.174
6 | RRIRYRPPRLPRPRPRPIVFPRP | -0.58
7 | RRIRYRPPRLPRPRPRPIWMPRP | -0.0399
8 | RRIRYRPPRLPRPRPRPIWNPRP | 0.0337
9 | RRIRYRPPRLPRPRPRPIYEPRP | 0.0166
10 | RRIRYRPPRLPRPRPRPIYHPRP | -0.85
11 | RRIRYRPPRLPRPRPRPIYIPRP | -0.673
12 | RRIRYRPPRLPRPRPRPKAKPRP | 0.0915
13 | RRIRYRPPRLPRPRPRPKALPRP | 0.178
14 | RRIRYRPPRLPRPRPRPKAQPRP | 0.35
15 | RRIRYRPPRLPRPRPRPKDHPRP | -0.487
16 | RRIRYRPPRLPRPRPRPKDVPRP | -0.0107
17 | RRIRYRPPRLPRPRPRPKENPRP | -0.0772
18 | RRIRYRPPRLPRPRPRPKFSPRP | -0.434
19 | RRIRYRPPRLPRPRPRPKFTPRP | -0.328
20 | RRIRYRPPRLPRPRPRPKFVPRP | -0.416
21 | RRIRYRPPRLPRPRPRPKGHPRP | -0.145
22 | RRIRYRPPRLPRPRPRPKGTPRP | -0.0217
23 | RRIRYRPPRLPRPRPRPKGVPRP | 0.028
24 | RRIRYRPPRLPRPRPRPKHCPRP | -0.611
25 | RRIRYRPPRLPRPRPRPKHLPRP | -0.155

Row | Sequence | shrunken log2 fold change
26 | RRIRYRPPRLPRPRPRPKKMPRP | -0.374
27 | RRIRYRPPRLPRPRPRPKPKPRP | 0.394
28 | RRIRYRPPRLPRPRPRPKPPPRP | 0.524
29 | RRIRYRPPRLPRPRPRPKQKPRP | -0.0531
30 | RRIRYRPPRLPRPRPRPKRLPRP | -0.102
31 | RRIRYRPPRLPRPRPRPKRNPRP | -0.374
32 | RRIRYRPPRLPRPRPRPKSAPRP | 0.0745
33 | RRIRYRPPRLPRPRPRPKSEPRP | -0.0489
34 | RRIRYRPPRLPRPRPRPKVCPRP | 0.0165
35 | RRIRYRPPRLPRPRPRPKWDPRP | -0.46
36 | RRIRYRPPRLPRPRPRPKWWPRP | -0.0129
37 | RRIRYRPPRLPRPRPRPKWYPRP | -0.884
38 | RRIRYRPPRLPRPRPRPKYLPRP | 0.00379
39 | RRIRYRPPRLPRPRPRPLAKPRP | 0.19
40 | RRIRYRPPRLPRPRPRPLCAPRP | -0.356
41 | RRIRYRPPRLPRPRPRPLDMPRP | -0.151
42 | RRIRYRPPRLPRPRPRPLEGPRP | 0.0645
43 | RRIRYRPPRLPRPRPRPLEIPRP | -0.00674
44 | RRIRYRPPRLPRPRPRPLFEPRP | -0.414
45 | RRIRYRPPRLPRPRPRPLGAPRP | -0.103
46 | RRIRYRPPRLPRPRPRPLHVPRP | -0.21
47 | RRIRYRPPRLPRPRPRPLIFPRP | -1.08
48 | RRIRYRPPRLPRPRPRPLIRPRP | -0.85
49 | RRIRYRPPRLPRPRPRPLKDPRP | -0.00674
50 | RRIRYRPPRLPRPRPRPLNTPRP | -0.234

Row | Sequence | shrunken log2 fold change
51 | RRIRYRPPRLPRPRPRPLQYPRP | -0.624
52 | RRIRYRPPRLPRPRPRPLSFPRP | -1.04
53 | RRIRYRPPRLPRPRPRPLTHPRP | -0.845
54 | RRIRYRPPRLPRPRPRPLTSPRP | -0.853
55 | RRIRYRPPRLPRPRPRPLWHPRP | -0.48
56 | RRIRYRPPRLPRPRPRPMAIPRP | -0.0433
57 | RRIRYRPPRLPRPRPRPMENPRP | -0.207
58 | RRIRYRPPRLPRPRPRPMFGPRP | -0.143
59 | RRIRYRPPRLPRPRPRPMKAPRP | -0.000687
60 | RRIRYRPPRLPRPRPRPMKRPRP | -0.0321
61 | RRIRYRPPRLPRPRPRPMLHPRP | -0.404
62 | RRIRYRPPRLPRPRPRPMPEPRP | 0.0501
63 | RRIRYRPPRLPRPRPRPMPRPRP | 0.0558
64 | RRIRYRPPRLPRPRPRPMPWPRP | -0.0575
65 | RRIRYRPPRLPRPRPRPMQGPRP | -0.0463
66 | RRIRYRPPRLPRPRPRPMQWPRP | -0.00277
67 | RRIRYRPPRLPRPRPRPMSEPRP | 0.0461
68 | RRIRYRPPRLPRPRPRPMSIPRP | -0.563
69 | RRIRYRPPRLPRPRPRPMSYPRP | -0.0389
70 | RRIRYRPPRLPRPRPRPMVQPRP | 0.0303
71 | RRIRYRPPRLPRPRPRPMWIPRP | -0.526
72 | RRIRYRPPRLPRPRPRPMYHPRP | -0.707
73 | RRIRYRPPRLPRPRPRPNAFPRP | -0.158
74 | RRIRYRPPRLPRPRPRPNCNPRP | -0.962
75 | RRIRYRPPRLPRPRPRPNDCPRP | -1.04

Row | Sequence | shrunken log2 fold change
76 | RRIRYRPPRLPRPRPRPNDDPRP | -0.0641
77 | RRIRYRPPRLPRPRPRPNDEPRP | -0.034
78 | RRIRYRPPRLPRPRPRPNDWPRP | -0.116
79 | RRIRYRPPRLPRPRPRPNGIPRP | -0.02
80 | RRIRYRPPRLPRPRPRPNHCPRP | 0.00938
81 | RRIRYRPPRLPRPRPRPNHDPRP | -0.433
82 | RRIRYRPPRLPRPRPRPNHKPRP | -1.3
83 | RRIRYRPPRLPRPRPRPNHLPRP | -1.32
84 | RRIRYRPPRLPRPRPRPNIFPRP | -0.42
85 | RRIRYRPPRLPRPRPRPNINPRP | -1.37
86 | RRIRYRPPRLPRPRPRPNKFPRP | -0.546
87 | RRIRYRPPRLPRPRPRPNKKPRP | -0.298
88 | RRIRYRPPRLPRPRPRPNKYPRP | -0.908
89 | RRIRYRPPRLPRPRPRPNLWPRP | 0.00221
90 | RRIRYRPPRLPRPRPRPNMKPRP | -0.815
91 | RRIRYRPPRLPRPRPRPNMTPRP | -0.00766
92 | RRIRYRPPRLPRPRPRPNPAPRP | 0.0854
93 | RRIRYRPPRLPRPRPRPNPWPRP | -0.189
94 | RRIRYRPPRLPRPRPRPNQHPRP | -1.18
95 | RRIRYRPPRLPRPRPRPNRHPRP | -0.614
96 | RRIRYRPPRLPRPRPRPNSLPRP | -1.11
97 | RRIRYRPPRLPRPRPRPNSSPRP | 0.0291
98 | RRIRYRPPRLPRPRPRPNVPPRP | -3.01
99 | RRIRYRPPRLPRPRPRPNYKPRP | -1.01
100 | RRIRYRPPRLPRPRPRPNYRPRP | -0.306

Row | Sequence | shrunken log2 fold change
101 | RRIRYRPPRLPRPRPRPNYSPRP | -1.39
102 | RRIRYRPPRLPRPRPRPPAMPRP | -0.35
103 | RRIRYRPPRLPRPRPRPPCEPRP | -0.468
104 | RRIRYRPPRLPRPRPRPPCRPRP | -0.211
105 | RRIRYRPPRLPRPRPRPPDEPRP | 0.0398
106 | RRIRYRPPRLPRPRPRPPEAPRP | 0.0456
107 | RRIRYRPPRLPRPRPRPPECPRP | 0.0463
108 | RRIRYRPPRLPRPRPRPPFAPRP | 0.0915
109 | RRIRYRPPRLPRPRPRPPHAPRP | -0.0606
110 | RRIRYRPPRLPRPRPRPPHPPRP | -0.187
111 | RRIRYRPPRLPRPRPRPPHSPRP | -0.699
112 | RRIRYRPPRLPRPRPRPPHWPRP | 0.203
113 | RRIRYRPPRLPRPRPRPPIFPRP | -0.381
114 | RRIRYRPPRLPRPRPRPPKNPRP | -0.164
115 | RRIRYRPPRLPRPRPRPPKTPRP | -0.38
116 | RRIRYRPPRLPRPRPRPPLHPRP | -0.455
117 | RRIRYRPPRLPRPRPRPPLKPRP | -0.192
118 | RRIRYRPPRLPRPRPRPPLNPRP | -0.228
119 | RRIRYRPPRLPRPRPRPPLWPRP | 0.277
120 | RRIRYRPPRLPRPRPRPPMWPRP | 0.53
121 | RRIRYRPPRLPRPRPRPPQDPRP | -0.362
122 | RRIRYRPPRLPRPRPRPPSHPRP | -0.383
123 | RRIRYRPPRLPRPRPRPPSRPRP | 0.232
124 | RRIRYRPPRLPRPRPRPPVFPRP | 0.0494
125 | RRIRYRPPRLPRPRPRPPVPPRP | 0.486

Row | Sequence | shrunken log2 fold change
126 | RRIRYRPPRLPRPRPRPPVQPRP | -0.0548
127 | RRIRYRPPRLPRPRPRPPWEPRP | -0.381
128 | RRIRYRPPRLPRPRPRPPWMPRP | -0.0946
129 | RRIRYRPPRLPRPRPRPPWQPRP | -0.121
130 | RRIRYRPPRLPRPRPRPQACPRP | 0.00187
131 | RRIRYRPPRLPRPRPRPQCLPRP | 0.0613
132 | RRIRYRPPRLPRPRPRPQEQPRP | -0.0134
133 | RRIRYRPPRLPRPRPRPQFDPRP | -0.0286
134 | RRIRYRPPRLPRPRPRPQFHPRP | -1.09
135 | RRIRYRPPRLPRPRPRPQGYPRP | -0.516
136 | RRIRYRPPRLPRPRPRPQINPRP | -0.669
137 | RRIRYRPPRLPRPRPRPQKLPRP | -0.418
138 | RRIRYRPPRLPRPRPRPQKSPRP | -0.208
139 | RRIRYRPPRLPRPRPRPQLHPRP | -0.395
140 | RRIRYRPPRLPRPRPRPQLMPRP | -0.509
141 | RRIRYRPPRLPRPRPRPQMLPRP | -0.846
142 | RRIRYRPPRLPRPRPRPQNNPRP | -0.86
143 | RRIRYRPPRLPRPRPRPQNSPRP | -0.00968
144 | RRIRYRPPRLPRPRPRPQPHPRP | -0.348
145 | RRIRYRPPRLPRPRPRPQQHPRP | -0.278
146 | RRIRYRPPRLPRPRPRPQRAPRP | -0.374
147 | RRIRYRPPRLPRPRPRPQRFPRP | -0.0259
148 | RRIRYRPPRLPRPRPRPQRKPRP | -0.263
149 | RRIRYRPPRLPRPRPRPQTGPRP | -0.288
150 | RRIRYRPPRLPRPRPRPQTIPRP | -0.0196
